# According to publication PMC3792966:
# Molecular target: SspA of F. tularensis SCHU S4 fused to the Zif protein (F. tularensis SCHU S4)
# Assay: two-hybrid
substance,measurement,value
MglA of F. tularensis SCHU S4 fused to the ω subunit of E. coli RNA polymerase (natural protein),β-galactosidase activity in strain AW23,2400 AU
same,β-galactosidase activity in strain AW24,26000 AU
